The conditions of assay [1]: stated in peptide description, no test or reference named; cited from earlier work.
The test system of a further assay is Arabidopsis plants. The note with it: synthetic peptides treating Arabidopsis plants; ref Kinoshita et al. 2007; cited from earlier work.
In assay [2] the test system is CLV1. As to conditions: truncated CLV1 LRR domain expressed in tobacco BY-2 cells; ref Ogawa et al. 2008; cited from earlier work.
For assay [3], the target named is BAM1-GFP (transient expression in N. benthamiana) (Arabidopsis thaliana) (UniProt O49545). In words: radioligand binding.
Chain of BAM1-GFP (transient expression in N. benthamiana) (Arabidopsis thaliana) (O49545 20-1003): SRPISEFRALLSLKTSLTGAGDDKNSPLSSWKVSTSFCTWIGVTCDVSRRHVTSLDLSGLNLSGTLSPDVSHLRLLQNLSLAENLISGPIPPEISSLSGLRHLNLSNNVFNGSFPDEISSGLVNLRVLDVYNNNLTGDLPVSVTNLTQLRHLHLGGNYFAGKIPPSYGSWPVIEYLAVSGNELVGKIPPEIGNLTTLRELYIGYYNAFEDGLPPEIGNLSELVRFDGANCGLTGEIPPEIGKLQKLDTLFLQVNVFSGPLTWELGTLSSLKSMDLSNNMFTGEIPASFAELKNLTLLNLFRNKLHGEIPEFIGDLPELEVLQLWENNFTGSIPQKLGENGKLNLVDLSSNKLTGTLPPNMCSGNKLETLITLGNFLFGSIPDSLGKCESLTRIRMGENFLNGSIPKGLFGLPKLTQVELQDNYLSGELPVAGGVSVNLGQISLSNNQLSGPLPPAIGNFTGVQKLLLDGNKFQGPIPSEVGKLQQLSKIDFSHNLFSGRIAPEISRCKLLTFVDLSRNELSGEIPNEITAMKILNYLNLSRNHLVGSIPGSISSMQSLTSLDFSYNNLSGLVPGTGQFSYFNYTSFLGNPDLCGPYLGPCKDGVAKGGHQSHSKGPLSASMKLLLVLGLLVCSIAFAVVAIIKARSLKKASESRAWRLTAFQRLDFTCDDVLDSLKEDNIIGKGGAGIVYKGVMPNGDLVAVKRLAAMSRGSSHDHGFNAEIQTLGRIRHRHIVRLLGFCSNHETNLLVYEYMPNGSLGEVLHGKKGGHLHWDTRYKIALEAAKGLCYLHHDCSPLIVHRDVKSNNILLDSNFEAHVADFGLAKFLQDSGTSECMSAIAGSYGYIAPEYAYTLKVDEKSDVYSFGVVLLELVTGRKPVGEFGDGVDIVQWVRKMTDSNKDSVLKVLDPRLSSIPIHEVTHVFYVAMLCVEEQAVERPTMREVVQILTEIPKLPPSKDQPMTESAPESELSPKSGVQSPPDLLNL
The target of assay [4] is BAM2-GFP (transient expression in N. benthamiana) (Arabidopsis thaliana) (UniProt Q9M2Z1). Kind of assay: radioligand binding.
Assay [5] addresses CLV1-GFP (transient expression in N. benthamiana) (Arabidopsis thaliana) (UniProt Q9SYQ8). Kind of assay: radioligand binding.
Assay [6] deals with CLV2-MYC (transient expression in N. benthamiana) (Arabidopsis thaliana) (UniProt O80809). Kind of assay: radioligand binding.
Assay [7] relates to CLV1. As to conditions: cold competitor to radiolabeled CLV3 CLE; ref Kondo et al. 2008, Ogawa et al. 2008; cited from earlier work.
The target in assay [8] is T1, CLV1-FLAG (transient expression in N. benthamiana) (Arabidopsis thaliana, UniProt Q9SYQ8 25-980).
T1 sequence (looked up): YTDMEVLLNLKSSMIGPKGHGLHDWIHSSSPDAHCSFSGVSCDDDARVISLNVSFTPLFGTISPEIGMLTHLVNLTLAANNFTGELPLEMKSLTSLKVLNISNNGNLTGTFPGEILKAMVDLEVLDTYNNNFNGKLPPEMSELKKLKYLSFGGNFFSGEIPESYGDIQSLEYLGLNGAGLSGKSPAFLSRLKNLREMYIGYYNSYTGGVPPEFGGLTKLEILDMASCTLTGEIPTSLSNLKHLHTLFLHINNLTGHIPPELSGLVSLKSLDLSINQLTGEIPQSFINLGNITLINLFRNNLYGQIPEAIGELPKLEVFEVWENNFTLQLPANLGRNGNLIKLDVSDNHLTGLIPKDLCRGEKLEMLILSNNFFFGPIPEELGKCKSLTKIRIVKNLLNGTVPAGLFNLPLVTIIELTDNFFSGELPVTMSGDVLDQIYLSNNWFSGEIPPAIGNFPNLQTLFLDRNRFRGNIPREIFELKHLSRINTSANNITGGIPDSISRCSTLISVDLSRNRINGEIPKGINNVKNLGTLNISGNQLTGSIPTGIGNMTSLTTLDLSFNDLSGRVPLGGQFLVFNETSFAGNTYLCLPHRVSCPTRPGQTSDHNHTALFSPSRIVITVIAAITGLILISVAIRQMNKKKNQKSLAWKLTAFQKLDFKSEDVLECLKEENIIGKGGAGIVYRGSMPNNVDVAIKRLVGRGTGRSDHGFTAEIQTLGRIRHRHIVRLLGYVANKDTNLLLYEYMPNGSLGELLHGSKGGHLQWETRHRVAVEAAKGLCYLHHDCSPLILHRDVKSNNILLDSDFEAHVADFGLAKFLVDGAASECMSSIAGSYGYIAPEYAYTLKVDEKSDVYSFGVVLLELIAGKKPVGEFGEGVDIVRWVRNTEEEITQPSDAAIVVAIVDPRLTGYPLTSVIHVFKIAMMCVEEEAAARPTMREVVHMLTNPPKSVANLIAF
Kind of assay: co-IP.

Assay [9] concerns the target T2, CRN-GFP (transient expression in N. benthamiana) (Arabidopsis thaliana, UniProt Q9LYU7 34-401).
T2 sequence (looked up): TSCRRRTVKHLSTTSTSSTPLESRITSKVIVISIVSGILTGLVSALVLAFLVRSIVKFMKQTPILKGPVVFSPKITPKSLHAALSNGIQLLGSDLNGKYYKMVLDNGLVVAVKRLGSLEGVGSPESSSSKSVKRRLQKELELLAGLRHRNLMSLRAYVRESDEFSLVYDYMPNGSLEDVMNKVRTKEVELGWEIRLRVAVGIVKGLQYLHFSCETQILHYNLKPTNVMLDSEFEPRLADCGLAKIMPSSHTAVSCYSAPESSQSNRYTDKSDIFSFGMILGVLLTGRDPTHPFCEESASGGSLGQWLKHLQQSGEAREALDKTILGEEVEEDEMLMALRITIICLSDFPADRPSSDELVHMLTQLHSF
In words: co-IP.

Assay [10] concerns the target T3, CLV1-GFP (transient expression in N. benthamiana) (Arabidopsis thaliana, UniProt Q9SYQ8 25-980).
T3 sequence (looked up): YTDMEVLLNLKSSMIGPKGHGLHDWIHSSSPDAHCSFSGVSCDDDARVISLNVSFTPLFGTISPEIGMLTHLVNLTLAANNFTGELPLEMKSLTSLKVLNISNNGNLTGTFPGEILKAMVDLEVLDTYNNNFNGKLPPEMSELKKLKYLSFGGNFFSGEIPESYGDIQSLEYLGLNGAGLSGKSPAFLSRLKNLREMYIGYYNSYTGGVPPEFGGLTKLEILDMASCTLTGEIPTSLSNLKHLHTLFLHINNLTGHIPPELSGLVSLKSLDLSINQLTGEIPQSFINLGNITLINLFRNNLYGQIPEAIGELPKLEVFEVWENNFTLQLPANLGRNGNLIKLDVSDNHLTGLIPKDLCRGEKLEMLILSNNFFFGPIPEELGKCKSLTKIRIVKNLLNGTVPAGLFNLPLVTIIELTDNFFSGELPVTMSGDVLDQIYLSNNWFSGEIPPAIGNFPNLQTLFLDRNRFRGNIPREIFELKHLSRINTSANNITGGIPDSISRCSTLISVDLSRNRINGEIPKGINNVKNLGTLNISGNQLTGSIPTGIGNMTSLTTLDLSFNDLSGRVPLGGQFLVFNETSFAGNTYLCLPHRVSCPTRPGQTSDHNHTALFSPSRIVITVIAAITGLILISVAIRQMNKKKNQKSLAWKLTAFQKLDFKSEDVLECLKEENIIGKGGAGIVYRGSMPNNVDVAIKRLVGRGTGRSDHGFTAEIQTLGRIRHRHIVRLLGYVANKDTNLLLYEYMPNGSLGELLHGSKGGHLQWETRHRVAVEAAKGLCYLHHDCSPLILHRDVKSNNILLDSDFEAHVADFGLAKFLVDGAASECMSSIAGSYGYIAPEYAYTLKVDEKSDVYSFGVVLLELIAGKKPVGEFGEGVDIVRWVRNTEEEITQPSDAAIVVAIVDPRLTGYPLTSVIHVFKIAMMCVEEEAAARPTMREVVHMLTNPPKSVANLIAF
Kind of assay: co-IP.

“Also recorded” adds a separate entry of the source. Residues, ends and D or L forms follow the SMILES beside them. No end group written: not given here.

As for “CLV3L: CLV3L (Arg70-Pro96) which includes the full CLV3 CLE domain plus the extended C-terminal tail and is partially functional (RTVPSGPDPLHHHVNPPRQPRNNFQLP; ends and bridges not checked; UniProt Q9XF04 70-96, looked up, fragment)”, the “functionality of the peptide” value in [1] is “partially functional”.

Regarding “CLE25: CLE peptide (RKVPNGPDPIHN; ends and bridges not checked; UniProt Q8LFL4 58-69, looked up)”, in the assay with Arabidopsis plants, the “effect on size of the SAM” value is recorded as “caused reduced size of the SAM”.

Take `CC(C)C[C@H](NC(=O)[C@@H]1CCCN1C(=O)[C@H](CC(=O)O)NC(=O)[C@@H]1CCCN1C(=O)CNC(=O)[C@H](CO)NC(=O)[C@@H]1CCCN1C(=O)[C@@H](NC(=O)[C@@H](NC(=O)[C@@H](N)CCCNC(=N)N)[C@@H](C)O)C(C)C)C(=O)N[C@@H](Cc1c[nH]cn1)C(=O)N[C@@H](Cc1c[nH]cn1)C(=O)O` [CLV3 CLE] (H-RTVPSGPDPLHH-OH): in the assay with CLV1 [2], the “binding to CLV1 (LRR / extracellular domain)” value is “bind to the truncated CLV1 LRR domain; also recorded: binds to the CLV3 CLE peptide through its extracellular domain”.

For orientation: Kd means the free concentration of one partner at which half of the binding sites on the other are occupied at equilibrium, for simple one-to-one binding. Read a low Kd as a tighter complex. Regarding 125I-radiolabeled CLV3 CLE peptide, the Kd in assay [3] was 26 nM; in assay [4], 36 nM; in [5], 30 nM; in [6] it was 32 nM.

For “CLV3S: CLV3S (Thr71-His81) which only contains a portion of the CLE domain and is nonfunctional (TVPSGPDPLHH; ends and bridges not checked)”, in the assay with CLV1 [7], the “competition of CLV3S at CLV1, previously reported” value is listed as “unable to compete”. Moreover, in assay [1], the “functionality of the peptide” value was “nonfunctional”.

B1: CLV2-MYC (transient expression in N. benthamiana) (receptor, Arabidopsis thaliana, UniProt O80809 26-720, looked up)
chain: QLPDLDPQDKASLLIFRVSIHDLNRSLSTWYGSSCSNWTGLACQNPTGKVLSLTLSGLNLSSQIHPSLCKLSSLQSLDLSHNNFSGNIPSCFGSLRNLRTLNLSRNRFVGSIPATFVSLKELREVVLSENRDLGGVVPHWFGNFSMNLERVDFSFCSFVGELPESLLYLKSLKYLNLESNNMTGTLRDFQQPLVVLNLASNQFSGTLPCFYASRPSLSILNIAENSLVGGLPSCLGSLKELSHLNLSFNGFNYEISPRLMFSEKLVMLDLSHNGFSGRLPSRISETTEKLGLVLLDLSHNSFSGDIPLRITELKSLQALRLSHNLLTGDIPARIGNLTYLQVIDLSHNALTGSIPLNIVGCFQLLALMISNNNLSGEIQPELDALDSLKILDISNNHISGEIPLTLAGLKSLEIVDISSNNLSGNLNEAITKWSNLKYLSLARNKFSGTLPSWLFKFDKIQMIDYSSNRFSWFIPDDNLNSTRFKDFQTGGGEGFAEPPGKVEIKISAAVVAKDELSFSYNLLSMVGIDLSDNLLHGEIPEALFRQKNIEYLNLSYNFLEGQLPRLEKLPRLKALDLSHNSLSGQVIGNISAPPGLTLLNLSHNCFSGIITEKEGLGKFPGALAGNPELCVETPGSKCDPANIDASQEEIYQNELVEGPISIWIFCLSAFISFDFGVLGIFCSARARSYILQTKA
Regarding B1, the percent co-immunoprecipitated in assay [8] was 2.5%; in assay [9], ~20%.

B2: BAM2-FLAG (transient expression in N. benthamiana) (receptor, Arabidopsis thaliana, UniProt Q9M2Z1 23-1002, looked up)
chain: KPITELHALLSLKSSFTIDEHSPLLTSWNLSTTFCSWTGVTCDVSLRHVTSLDLSGLNLSGTLSSDVAHLPLLQNLSLAANQISGPIPPQISNLYELRHLNLSNNVFNGSFPDELSSGLVNLRVLDLYNNNLTGDLPVSLTNLTQLRHLHLGGNYFSGKIPATYGTWPVLEYLAVSGNELTGKIPPEIGNLTTLRELYIGYYNAFENGLPPEIGNLSELVRFDAANCGLTGEIPPEIGKLQKLDTLFLQVNAFTGTITQELGLISSLKSMDLSNNMFTGEIPTSFSQLKNLTLLNLFRNKLYGAIPEFIGEMPELEVLQLWENNFTGSIPQKLGENGRLVILDLSSNKLTGTLPPNMCSGNRLMTLITLGNFLFGSIPDSLGKCESLTRIRMGENFLNGSIPKELFGLPKLSQVELQDNYLTGELPISGGGVSGDLGQISLSNNQLSGSLPAAIGNLSGVQKLLLDGNKFSGSIPPEIGRLQQLSKLDFSHNLFSGRIAPEISRCKLLTFVDLSRNELSGDIPNELTGMKILNYLNLSRNHLVGSIPVTIASMQSLTSVDFSYNNLSGLVPSTGQFSYFNYTSFVGNSHLCGPYLGPCGKGTHQSHVKPLSATTKLLLVLGLLFCSMVFAIVAIIKARSLRNASEAKAWRLTAFQRLDFTCDDVLDSLKEDNIIGKGGAGIVYKGTMPKGDLVAVKRLATMSHGSSHDHGFNAEIQTLGRIRHRHIVRLLGFCSNHETNLLVYEYMPNGSLGEVLHGKKGGHLHWNTRYKIALEAAKGLCYLHHDCSPLIVHRDVKSNNILLDSNFEAHVADFGLAKFLQDSGTSECMSAIAGSYGYIAPEYAYTLKVDEKSDVYSFGVVLLELITGKKPVGEFGDGVDIVQWVRSMTDSNKDCVLKVIDLRLSSVPVHEVTHVFYVALLCVEEQAVERPTMREVVQILTEIPKIPLSKQQAAESDVTEKAPAINESSPDSGSPPDLLSN
As for B2, the percent co-immunoprecipitated in assay [10] was 10%.
